System: Escherichia coli TOP10
Experiment: shrunken log2 fold change of peptide-encoding DNA abundance (4.5 h post-induction vs induction); higher = less antimicrobial activity (less host growth inhibition)
Settings: time post-induction: 4.5 h; library: site-saturation at positions 5, 18, 19, 20
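Note: peptides expressed intracellularly from a pBAD plasmid library in pooled LB shake-flask culture, induced with 0.3% L-arabinose, DNA abundance read by NGS, three biological replicates, DESeq2 with apeglm shrinkage.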

| Sequence | shrunken log2 fold change |
| --- | --- |
| RRIRLRPPRLPRPRPRPDHHPRP | -0.769 |
| RRIRMRPPRLPRPRPRPRYMPRP | -0.212 |
| RRIRARPPRLPRPRPRPRIRPRP | 0.322 |
| RRIRARPPRLPRPRPRPGSTPRP | 0.247 |
| RRIRARPPRLPRPRPRPQRFPRP | 0.0296 |
| RRIRLRPPRLPRPRPRPLVAPRP | 0.343 |
| RRIRDRPPRLPRPRPRPFCRPRP | 0.0534 |
| RRIRERPPRLPRPRPRPEFFPRP | -0.131 |
| RRIRQRPPRLPRPRPRPAASPRP | 0.129 |
| RRIRIRPPRLPRPRPRPHMKPRP | -0.809 |
| RRIRKRPPRLPRPRPRPCIMPRP | 1.3 |
| RRIRRRPPRLPRPRPRPMYCPRP | -0.574 |
| RRIRIRPPRLPRPRPRPRMIPRP | 2.5 |
| RRIRFRPPRLPRPRPRPKSCPRP | 0.0245 |
| RRIRWRPPRLPRPRPRPVLEPRP | 0.227 |
| RRIRHRPPRLPRPRPRPRVNPRP | 0.106 |
| RRIRWRPPRLPRPRPRPVWPPRP | 0.909 |
| RRIRARPPRLPRPRPRPVKDPRP | 0.284 |
| RRIRVRPPRLPRPRPRPCQPPRP | -0.236 |
| RRIRGRPPRLPRPRPRPWMWPRP | 0.218 |
| RRIRCRPPRLPRPRPRPSGYPRP | -0.724 |
| RRIRSRPPRLPRPRPRPQPDPRP | -0.185 |
| RRIRNRPPRLPRPRPRPLALPRP | -0.239 |

| Sequence | shrunken log2 fold change |
| --- | --- |
| RRIRIRPPRLPRPRPRPCLLPRP | -0.495 |
| RRIRQRPPRLPRPRPRPEPCPRP | -0.0944 |
| RRIRWRPPRLPRPRPRPESQPRP | 0.185 |
| RRIRMRPPRLPRPRPRPCWPPRP | 0.218 |
| RRIRKRPPRLPRPRPRPDEIPRP | 0.0203 |
| RRIRHRPPRLPRPRPRPGTHPRP | 0.0646 |
| RRIRNRPPRLPRPRPRPSNAPRP | -0.343 |
| RRIRYRPPRLPRPRPRPPNEPRP | -0.106 |
| RRIRKRPPRLPRPRPRPQVAPRP | -0.0663 |
| RRIRDRPPRLPRPRPRPLASPRP | 0.171 |
| RRIRMRPPRLPRPRPRPSGEPRP | 0.824 |
| RRIRRRPPRLPRPRPRPQGNPRP | 0.0869 |
| RRIRLRPPRLPRPRPRPHSIPRP | -0.191 |
| RRIRARPPRLPRPRPRPWLYPRP | -0.0506 |
| RRIRIRPPRLPRPRPRPRMPPRP | -0.0534 |
| RRIRKRPPRLPRPRPRPWRIPRP | 0.0387 |
| RRIRNRPPRLPRPRPRPVGTPRP | -0.073 |
| RRIRLRPPRLPRPRPRPYFIPRP | -1.11 |
| RRIRFRPPRLPRPRPRPNNTPRP | -0.999 |
| RRIRPRPPRLPRPRPRPNDYPRP | -0.307 |
| RRIRPRPPRLPRPRPRPFGMPRP | -0.749 |
| RRIRMRPPRLPRPRPRPMGVPRP | 0.06 |
| RRIRYRPPRLPRPRPRPQADPRP | -0.323 |

| Sequence | shrunken log2 fold change |
| --- | --- |
| RRIRKRPPRLPRPRPRPSKNPRP | 0.219 |
| RRIRHRPPRLPRPRPRPKSTPRP | -0.0868 |
| RRIRGRPPRLPRPRPRPDLAPRP | 1.59 |
| RRIRPRPPRLPRPRPRPYSWPRP | -0.046 |
| RRIRLRPPRLPRPRPRPGYPPRP | -0.361 |
| RRIRYRPPRLPRPRPRPGVAPRP | 0.182 |
| RRIRKRPPRLPRPRPRPKSLPRP | 0.107 |
| RRIRIRPPRLPRPRPRPHMYPRP | -0.485 |
| RRIRARPPRLPRPRPRPDPCPRP | 0.428 |
| RRIRPRPPRLPRPRPRPECLPRP | 0.0299 |
| RRIRMRPPRLPRPRPRPCMPPRP | -0.106 |
| RRIRPRPPRLPRPRPRPQSAPRP | 1.69 |
| RRIRERPPRLPRPRPRPDNWPRP | -0.103 |
| RRIRVRPPRLPRPRPRPVHYPRP | -0.0353 |
| RRIRARPPRLPRPRPRPCEMPRP | 0.345 |
| RRIRTRPPRLPRPRPRPTCEPRP | 0.125 |
| RRIRMRPPRLPRPRPRPIYVPRP | -0.165 |
| RRIRDRPPRLPRPRPRPLAFPRP | 0.334 |
| RRIRDRPPRLPRPRPRPRHGPRP | -0.0452 |
| RRIRVRPPRLPRPRPRPESEPRP | 0.0921 |
| RRIRSRPPRLPRPRPRPYDEPRP | 0.0261 |
| RRIRFRPPRLPRPRPRPYPDPRP | 0.0764 |
| RRIRERPPRLPRPRPRPPHFPRP | 0.568 |

| Sequence | shrunken log2 fold change |
| --- | --- |
| RRIRLRPPRLPRPRPRPNDFPRP | -0.0142 |
| RRIRRRPPRLPRPRPRPSLGPRP | 0.261 |
| RRIRYRPPRLPRPRPRPCKLPRP | -0.698 |
| RRIRKRPPRLPRPRPRPIGIPRP | -0.01 |
| RRIRDRPPRLPRPRPRPFCWPRP | 0.445 |
| RRIRIRPPRLPRPRPRPIDCPRP | -0.145 |
| RRIRYRPPRLPRPRPRPESQPRP | -0.0411 |
| RRIRCRPPRLPRPRPRPPWEPRP | -0.0369 |
| RRIRTRPPRLPRPRPRPLEMPRP | 0.0834 |
| RRIRYRPPRLPRPRPRPDQQPRP | -0.0144 |
| RRIRLRPPRLPRPRPRPWTCPRP | -0.54 |
| RRIRERPPRLPRPRPRPMCKPRP | -0.373 |
| RRIRKRPPRLPRPRPRPQLNPRP | 0.0489 |
| RRIRGRPPRLPRPRPRPTPKPRP | 1.2 |
| RRIRTRPPRLPRPRPRPGATPRP | 0.572 |
| RRIRMRPPRLPRPRPRPYLPPRP | -0.78 |
| RRIRRRPPRLPRPRPRPWTTPRP | 0.201 |
| RRIRNRPPRLPRPRPRPPDSPRP | 0.0377 |
| RRIRIRPPRLPRPRPRPARMPRP | 0.223 |
| RRIRERPPRLPRPRPRPIVLPRP | -0.579 |
| RRIRSRPPRLPRPRPRPGRRPRP | 0.263 |
| RRIRDRPPRLPRPRPRPMCIPRP | -0.121 |

Reference: the supplement of paper PMC9112550, “Optimization of the antimicrobial peptide Bac7 by deep mutational scanning” (BMC Biology, 2022)
